Measured values published in patent US20200222503A1 (published 2020).

Tests used:
[1] = biological target: murine PD-L1 on CHOK1 cells (murine, UniProt Q9EP73 19-290); experiment: flow
[2] = biological target: T1, murine PD-L2 on CHOK1 cells (murine, UniProt Q9WUL5 20-247); experiment: flow cytometry cell binding
T1 chain: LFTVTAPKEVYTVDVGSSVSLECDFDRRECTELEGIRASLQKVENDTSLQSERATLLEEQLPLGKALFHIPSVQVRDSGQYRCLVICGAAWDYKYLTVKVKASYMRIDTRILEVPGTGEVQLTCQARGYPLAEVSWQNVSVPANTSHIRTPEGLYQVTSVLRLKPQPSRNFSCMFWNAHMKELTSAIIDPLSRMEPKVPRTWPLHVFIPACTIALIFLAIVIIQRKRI

[3] = biological target: T2, murine OX40 on CHOK1 cells (murine, UniProt P47741 20-272); experiment: flow cytometry cell binding
T2 chain: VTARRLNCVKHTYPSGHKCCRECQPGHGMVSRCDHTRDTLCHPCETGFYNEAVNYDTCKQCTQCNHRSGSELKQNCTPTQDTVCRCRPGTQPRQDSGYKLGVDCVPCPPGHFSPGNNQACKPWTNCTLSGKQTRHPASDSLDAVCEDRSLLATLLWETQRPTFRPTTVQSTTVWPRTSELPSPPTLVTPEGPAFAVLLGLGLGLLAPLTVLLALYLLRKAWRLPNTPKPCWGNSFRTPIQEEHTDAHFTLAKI

mCD40L-Fc = experiment: SPR

murine PD-L1 on CHOK1 cells, sequence (Q9EP73 19-290): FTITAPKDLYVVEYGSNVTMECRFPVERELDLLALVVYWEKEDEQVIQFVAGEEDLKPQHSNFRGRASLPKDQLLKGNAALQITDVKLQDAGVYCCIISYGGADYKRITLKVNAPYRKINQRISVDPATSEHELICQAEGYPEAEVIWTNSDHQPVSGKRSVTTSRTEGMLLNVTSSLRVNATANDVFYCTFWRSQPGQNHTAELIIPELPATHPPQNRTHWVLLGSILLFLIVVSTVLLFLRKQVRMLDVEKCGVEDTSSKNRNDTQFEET

B1: murine PD-1-Fc-OX40L chimeric protein (Fc fusion)
chain: LEVPNGPWRSLTFYPAWLTVSEGANATFTCSLSNWSEDLMLNWNRLSPSNQTEKQAAFCNGLSQPVQDARFQIIQLPNRHDFHMNILDTRRNDSGIYLCGAISLHPKAKIEESPGAELVVTERILETSTRYPSPSPKPEGRFQGMSSSPAKDPPIQRLRGAVTRCEDGQLFISSYKNEYQTMEVQNNSVVIKCDGLYIIYLKGSFFQEVKIDLHFREDHNPISIPMLNDGRRIVFTVVASLAFKDKVYLTVNAPDTLCEHLQINDGELIVVQLTPGYCAPEGSYHSTVNQVPL
EC50 [1]: 27.8 nM | EC50 [2]: 47.7 nM | EC50 [3]: 6.28 nM

B2: mCD40 (receptor)
chain: VTCSDKQYLHDGQCCDLCQPGSRLTSHCTALEKTQCHPCDSGEFSAQWNREIRCHQHRHCEPNQGLRVKKEGTAESDTVCTCKEGQHCTSKDCEACAQHTPCIPGFGVMEMATETTDTVCHPCPVGFFSNQSSLFEKCYPWTSCEDKNLEVLQKGTSQTNVICGLKSRMR
Kd (mCD40L-Fc): 3.23 nM
